# Results published in patent US20180117114A1, “PEPTIDES THAT MODULATE THE EFFECT OF THE CRMP: NEUROFIBROMIN COMPLEX ON SYNAPTIC TRANSMISSION” (Indiana University Research and Technology Coporation, priority 2015, published 2018).
# Legend:
# CaV2.2 [1] = experiment: CaV2.2 currents in transfected neurons by whole-cell voltage clamp electrophysiology; type: cell-based; conditions: compared to CRMP-2 neurons; 2 days post-transfection
# Method: (§1) Recently, it was shown that CRMP-2 facilitates CaV2.2 membrane trafficking in hippocampal and sensory neurons (12, 13), the hypothesis that the CBD3 peptide would act in a dominant negative manner to inhibit this CRMP-2 mediated trafficking was tested. Plasmids containing full-length CRMP-2 or the CBD3 peptide fused to enhanced green fluorescent protein (EGFP) were transiently transfected into human embryonic kidney 293 (HEK293) cells expressing CaV2.2. […] Since CBD3 peptide expression was sufficient in preventing forward trafficking of CaV2.2, it is possible that this would result in loss of currents via these channels. To test this, neurons were transfected with full-length CRMP-2 or CBD3 peptide and measured CaV2.2 currents 2 days post-transfection using whole-cell voltage clamp electrophysiology. Expression of CBD3 reduced peak Ca^2+ current density by ˜64% compared to CRMP-2 neurons (FIGS. 2C and 2D).
# CaV2.2 [2] = target: T1, CaV2.2 (Homo sapiens, UniProt Q00975); experiment: CaV2.2 surface staining in transfected HEK293 cells expressing CaV2.2; type: cell-based; conditions: HEK293 cells expressing CaV2.2, transiently transfected with EGFP-fused plasmids
# T1 construct: expressed in transfected cells; host or cells: HEK293 cells expressing CaV2.2
# T1 sequence (Q00975 whole entry, the tested form may be a part): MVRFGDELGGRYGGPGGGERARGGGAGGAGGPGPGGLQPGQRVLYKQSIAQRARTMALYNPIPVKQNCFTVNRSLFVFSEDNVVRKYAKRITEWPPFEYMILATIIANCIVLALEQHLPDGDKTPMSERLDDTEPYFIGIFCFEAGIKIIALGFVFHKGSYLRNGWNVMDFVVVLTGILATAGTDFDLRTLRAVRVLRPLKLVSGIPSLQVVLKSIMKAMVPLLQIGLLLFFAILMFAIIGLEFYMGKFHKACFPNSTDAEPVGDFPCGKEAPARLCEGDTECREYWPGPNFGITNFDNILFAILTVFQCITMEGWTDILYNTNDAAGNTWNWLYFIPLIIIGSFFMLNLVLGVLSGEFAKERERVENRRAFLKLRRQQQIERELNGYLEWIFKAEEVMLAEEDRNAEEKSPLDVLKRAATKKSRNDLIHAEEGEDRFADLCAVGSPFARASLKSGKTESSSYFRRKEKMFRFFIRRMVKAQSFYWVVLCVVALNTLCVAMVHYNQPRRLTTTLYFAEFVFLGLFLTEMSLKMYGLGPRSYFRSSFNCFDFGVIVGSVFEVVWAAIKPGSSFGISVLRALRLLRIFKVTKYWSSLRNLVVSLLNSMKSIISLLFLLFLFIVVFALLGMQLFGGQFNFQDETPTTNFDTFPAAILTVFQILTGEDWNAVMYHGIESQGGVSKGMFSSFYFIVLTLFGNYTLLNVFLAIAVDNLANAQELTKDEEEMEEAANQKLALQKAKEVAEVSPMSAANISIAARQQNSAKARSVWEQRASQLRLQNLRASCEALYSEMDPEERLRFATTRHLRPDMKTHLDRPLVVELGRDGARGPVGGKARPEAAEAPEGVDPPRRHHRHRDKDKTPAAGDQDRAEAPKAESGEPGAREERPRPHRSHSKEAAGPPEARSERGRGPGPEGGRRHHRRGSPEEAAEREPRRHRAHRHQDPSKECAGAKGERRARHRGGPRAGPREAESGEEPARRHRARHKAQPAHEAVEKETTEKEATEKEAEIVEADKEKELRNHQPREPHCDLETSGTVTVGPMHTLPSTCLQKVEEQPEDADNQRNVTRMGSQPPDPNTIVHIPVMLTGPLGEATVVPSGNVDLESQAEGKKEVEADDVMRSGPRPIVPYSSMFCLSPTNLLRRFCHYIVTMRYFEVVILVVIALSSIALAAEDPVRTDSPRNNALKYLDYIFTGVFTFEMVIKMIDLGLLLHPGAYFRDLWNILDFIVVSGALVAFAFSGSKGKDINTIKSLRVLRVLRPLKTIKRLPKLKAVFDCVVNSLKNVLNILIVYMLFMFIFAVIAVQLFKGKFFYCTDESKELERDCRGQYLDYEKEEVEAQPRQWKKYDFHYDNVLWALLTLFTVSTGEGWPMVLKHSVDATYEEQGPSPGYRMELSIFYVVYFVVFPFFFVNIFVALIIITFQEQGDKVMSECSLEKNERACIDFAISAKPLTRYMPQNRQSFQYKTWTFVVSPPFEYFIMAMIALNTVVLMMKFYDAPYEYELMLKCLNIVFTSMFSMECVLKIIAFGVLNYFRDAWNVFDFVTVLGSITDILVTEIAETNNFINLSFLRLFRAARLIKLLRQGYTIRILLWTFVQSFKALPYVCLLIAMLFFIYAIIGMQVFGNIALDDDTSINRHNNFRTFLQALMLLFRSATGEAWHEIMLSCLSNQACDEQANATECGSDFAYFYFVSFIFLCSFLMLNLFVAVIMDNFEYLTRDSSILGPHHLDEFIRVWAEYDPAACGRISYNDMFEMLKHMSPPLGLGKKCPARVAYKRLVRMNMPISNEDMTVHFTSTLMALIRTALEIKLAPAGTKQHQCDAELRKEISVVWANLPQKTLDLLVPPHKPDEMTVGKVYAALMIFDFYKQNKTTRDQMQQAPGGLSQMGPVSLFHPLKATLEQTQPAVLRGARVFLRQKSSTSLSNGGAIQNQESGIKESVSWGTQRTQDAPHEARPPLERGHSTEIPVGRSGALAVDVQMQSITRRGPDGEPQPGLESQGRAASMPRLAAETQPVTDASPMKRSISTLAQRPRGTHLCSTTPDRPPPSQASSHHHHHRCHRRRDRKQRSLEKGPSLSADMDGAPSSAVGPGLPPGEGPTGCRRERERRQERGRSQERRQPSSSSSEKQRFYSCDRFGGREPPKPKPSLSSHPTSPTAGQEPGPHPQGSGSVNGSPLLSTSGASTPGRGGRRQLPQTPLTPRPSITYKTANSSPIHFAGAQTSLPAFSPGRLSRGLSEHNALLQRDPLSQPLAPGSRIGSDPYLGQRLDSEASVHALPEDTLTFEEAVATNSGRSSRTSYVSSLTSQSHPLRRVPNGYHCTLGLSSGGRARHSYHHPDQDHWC
# Method: as §1
# CRMP-2 = target: T2, CRMP-2 (Mus musculus, UniProt O08553); experiment: SPOTS blot of neurofibromin C-terminus peptides overlaid with mouse brain lysate, probed with CRMP-2 antibodies; type: binding; conditions: 15-mers, three CRMP-2 antibodies, FIG. 4
# T2 construct: overlaid with wild-type mouse brain lysate in NF1 solubilization buffer; from tissue; host or cells: wild-type mouse brain lysate
# Method: FIG. 4 presents plot of mean binding of CRMP-2 to neurofibromin versus peptide blot position. Neurofibromin peptides (15-mers) were spotted onto a SPOTS blot membrane from amino acids 2260-2818 of […], a region where neurofibromin has been reported to bind CRMP-2. The blots were blocked, then overlaid with wild-type mouse brain lysate in NF1 solubilization buffer, washed briefly, then incubated with poly CRMP-2 (Sigma) or mono CRMP-2+poly CRMP-2 phospho Ser522 and Ser555 antibodies. The blots were scanned (Licor) and the spot intensity normalized to the maximum intensity in each series. The normalized data was then averaged and the mean+/−SEM is shown in the graph above (n=3).
# Referring now to FIG. 4, peptides encompassing the C-terminus of neurofibromin were spotted with CRMP-2 and the resulting blot was probed with three different CRMP-2 antibodies. […] These peptides are: SEQ ID NO: 1, RVSHGQIKQIIRILS; SEQ ID NO: 2, KGYRHPSPAIVARTV, and SEQ ID NO: 3, YLQSFGFNGLWRFAG. In order to facilitate their entry into cells, each peptide may be fused to a portion of the cell-membrane transduction domain of the human immunodeficiency virus-type 1 (HIV-1) transactivator of transcription (TAT) protein (SEQ ID NO: 4 and/or SEQ ID NO: 6).
Sequence,reduction of peak Ca^2+ current density (CaV2.2 [1]),cells exhibiting CaV2.2 surface staining (CaV2.2 [2]),CRMP-2 binding to neurofibromin peptides (normalized spot intensity) (CRMP-2)
"DFVYKRIKARSRLAE [CBD3 peptide, a peptide derived from a portion of the CBD3 region; expressed fused to EGFP in b74]",~64%,~10%,–
"KGYRHPSPAIVARTV [SEQ ID NO: 2, a peptide encompassing a portion of the C-terminus of neurofibromin]",–,–,peaks
"RVSHGQIKQIIRILS [SEQ ID NO: 1, a peptide encompassing a portion of the C-terminus of neurofibromin]",–,–,peaks
"YLQSFGFNGLWRFAG [SEQ ID NO: 3, a peptide encompassing a portion of the C-terminus of neurofibromin]",–,–,peaks
